The values that follow come from patent publication US20250320281A1.

What all share (test): cell-based or functional assay
Experiment [1] has as its target HIV-1 Env of isolate 92UG024 (clade D), on pseudovirus (HIV-1).
In experiment [2] the target is HIV-1 Env of isolate APV_17, clade B, on pseudovirus (HIV-1).
In experiment [3] the target is HIV-1 Env of isolate MGRM-D-008 (clade D pseudovirus) (HIV-1).
The target in experiment [4] is HIV-1 Env of isolate MGRM-D-013 (clade D pseudovirus) (HIV-1).
The target of experiment [5] is HIV-1 Env of isolate MGRM-G-014 (HIV-1).
In experiment [6] the target is HIV-1 Env of isolate MGRM-G-017 (HIV-1).
Experiment [7] addresses HIV-1 Env of isolate MGRM-G-028 (HIV-1).
Experiment [8] deals with HIV-1 Env of isolate TRO.11 (Acute), clade B, on pseudovirus (HIV-1).
In experiment [9] the target is HIV-1 Env of pseudovirus MGRM-AE-006 (clade CRF01_AE) (HIV-1).
Experiment [10] has as its target HIV-1 Env of pseudovirus MGRM-F1-014 (HIV-1).
Experiment [11] deals with HIV-1 Env of pseudovirus MGRM-G-015 (HIV-1, clade G isolate MGRM-G-015).
Experiment [12] addresses HIV-1 Env of pseudovirus MGRM-G-016 (HIV-1, clade G isolate MGRM-G-016).
The target of experiment [13] is HIV-1 Env of pseudovirus MGRM-G-024 (HIV-1, clade G isolate MGRM-G-024).
The target in experiment [14] is HIV-1 Env of isolate 92UG005 (clade D), on pseudovirus (HIV-1).
The target of experiment [15] is HIV-1 Env of isolate 98CN009 (pseudovirus) (HIV-1).
Experiment [16] addresses HIV-1 Env of isolate MGRM-AE-007 (HIV-1).
The target of experiment [17] is HIV-1 Env of isolate MGRM-AG-009 (HIV-1).
The target in experiment [18] is HIV-1 Env of isolate MGRM-AG-012 (HIV-1).
Experiment [19] concerns the target HIV-1 Env of isolate MGRM-C-028 (HIV-1).
Experiment [20] deals with HIV-1 Env of isolate MGRM-D-001 (pseudovirus) (HIV-1).
Experiment [21] deals with HIV-1 Env of isolate MGRM-D-016 (pseudovirus) (HIV-1).
Experiment [22] concerns the target HIV-1 Env of isolate MGRM-F1-021 (HIV-1).
Experiment [23] has as its target HIV-1 Env of isolate THR0.18 (subtype B pseudovirus) (HIV-1).
In experiment [24] the target is HIV-1 Env of isolate TRJ04551.58 (subtype B pseudovirus) (HIV-1).
Experiment [25] deals with HIV-1 93IN905 envelope glycoprotein (Env) on pseudovirus (HIV-1).
Experiment [26] concerns the target HIV-1 APV13 Env (pseudovirus, clade B) (HIV-1).
Experiment [27] has as its target HIV-1 Env of isolate JR-CSF (pseudovirus) (HIV-1) (UniProt P20871).
The target of experiment [28] is HIV-1 Env of pseudovirus isolate MGRM-G-025 (HIV-1).
For experiment [29], the target named is HIV-1 Env of isolate MGRM-AE-003 (subtype AE) (HIV-1).
The target of experiment [30] is HIV-1 Env of isolate MGRM-AE-005 (subtype AE) (HIV-1).
The target of experiment [31] is HIV-1 Env of isolate VLGCA1 (subtype A) (HIV-1).

Sequence of 4993_K13 (PGT-141) (antibody) (VH): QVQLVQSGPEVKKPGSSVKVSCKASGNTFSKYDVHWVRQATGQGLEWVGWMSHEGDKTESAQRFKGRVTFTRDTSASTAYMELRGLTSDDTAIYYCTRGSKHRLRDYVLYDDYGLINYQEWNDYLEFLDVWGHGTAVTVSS
Sequence of 4993_K13 (PGT-141) (antibody) (VL): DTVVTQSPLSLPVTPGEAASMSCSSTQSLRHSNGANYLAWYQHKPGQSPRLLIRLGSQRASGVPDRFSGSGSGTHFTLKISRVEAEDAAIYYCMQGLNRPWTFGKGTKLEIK
Sequence of 4980_N08 (PGT-143) (antibody) (VH): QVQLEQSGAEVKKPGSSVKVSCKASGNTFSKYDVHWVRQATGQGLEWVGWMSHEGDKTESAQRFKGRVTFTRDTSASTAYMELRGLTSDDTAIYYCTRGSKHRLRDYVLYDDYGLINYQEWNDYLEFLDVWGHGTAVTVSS
Sequence of 4980_N08 (PGT-143) (antibody) (VL): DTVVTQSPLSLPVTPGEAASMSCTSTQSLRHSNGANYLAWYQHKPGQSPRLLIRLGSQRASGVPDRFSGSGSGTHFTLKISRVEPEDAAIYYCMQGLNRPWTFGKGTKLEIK
Sequence of 4970_K22 (PGT-144) (antibody) (VH): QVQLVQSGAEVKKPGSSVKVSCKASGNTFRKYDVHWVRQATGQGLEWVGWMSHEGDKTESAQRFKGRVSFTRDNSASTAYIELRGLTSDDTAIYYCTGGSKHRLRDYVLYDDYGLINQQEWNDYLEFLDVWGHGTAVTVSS
Sequence of 4970_K22 (PGT-144) (antibody) (VL): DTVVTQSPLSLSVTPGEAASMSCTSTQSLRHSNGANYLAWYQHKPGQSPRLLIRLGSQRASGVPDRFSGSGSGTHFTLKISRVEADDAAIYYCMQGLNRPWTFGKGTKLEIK
Sequence of 4995_E20 (PGT-142) (antibody) (VH): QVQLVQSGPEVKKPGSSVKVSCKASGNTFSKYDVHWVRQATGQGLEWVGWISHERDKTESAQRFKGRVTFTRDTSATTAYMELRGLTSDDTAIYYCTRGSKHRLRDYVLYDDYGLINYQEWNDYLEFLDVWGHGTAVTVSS

As to 1496_C09 (PG9) (TCN-109) (antibody), the IC50 (µg/mL), pseudovirus neutralization in [1] is 1.86 µg/mL; in [5] it was 16.5 µg/mL; in [6], 0.104 µg/mL; in experiment [7], 0.891 µg/mL. In experiment [1], this substance showed an IC50, pseudovirus neutralization of 1.91 µg/mL. Moreover, the IC50 (µg/ml), pseudovirus neutralization in [2] was 14.6 µg/mL; in experiment [3] it was 6.86 µg/mL; in [4], 0.06 µg/mL; in experiment [8], 5.43 µg/mL; in [10], 0.01 µg/mL; in experiment [11] it was 1.51 µg/mL. Further, the IC50 (µg/ml), pseudovirus neutralization was 0.4 µg/mL in experiment [12] and 0.07 µg/mL in [13]. The substance also registered an IC50 in experiment [9] of 0.05 µg/mL.
Consider 4838_L06 (PGT-121) (antibody), for which the IC50, pseudovirus neutralization in experiment [14] was more than 10 µg/mL; in experiment [1], more than 10 µg/mL; in experiment [15] it was 0.009 µg/mL; in [20], 0.615 µg/mL; in experiment [21], more than 50 µg/mL. In addition, the IC50 in experiment [16] was more than 50 µg/mL; in experiment [17], 0.08 µg/mL; in experiment [18], more than 50 µg/mL. In [19], this substance had a neutralization IC50 of 0.472 µg/mL. The IC50 (µg/mL), pseudovirus neutralization is 0.099 µg/mL in [22], more than 50 µg/mL in [23] and 7.09 µg/mL in experiment [24].
Turning to 4858_P08 (PGT-123) (antibody), the neutralization IC50 amounted to 0.0071 µg/mL in experiment [25] and 0.402 µg/mL in experiment [19]. This substance also came in with a neutralization IC80 in [25] of 0.0281 µg/mL. This substance also registered a neutralization IC90 in experiment [25] of 0.0625 µg/mL. Moreover, in [25], the neutralization IC95 worked out at 0.131 µg/mL. Moreover, the IC50 neutralization in experiment [26] turned out to be 0.222 µg/mL. Further, the IC50, pseudovirus neutralization in experiment [14] was 2.49 µg/mL; in [1], more than 10 µg/mL; in [15] it was 0.007 µg/mL; in experiment [20], 0.147 µg/mL; in [21], more than 50 µg/mL. In experiment [27], this substance came in with a Primary Neutralization Index (B cell culture supernatant) of 1.6. Also, the IC50 in [16] was more than 50 µg/mL; in experiment [17], 0.073 µg/mL; in [18], more than 50 µg/mL. Further, the IC50 (µg/mL), pseudovirus neutralization in experiment [22] was 0.307 µg/mL; in experiment [23], more than 50 µg/mL; in experiment [24], 16.9 µg/mL; in [28] it was 0.046 µg/mL.
As to 4877_D15 (PGT-122) (antibody), the IC50 neutralization in experiment [26] is 0.992 µg/mL. Moreover, the IC50, pseudovirus neutralization in experiment [14] is more than 10 µg/mL; in [1] it was more than 10 µg/mL; in [15], 0.013 µg/mL; in [20] it was 1.13 µg/mL; in experiment [21] it was more than 50 µg/mL. Further, the IC50 in experiment [16] is more than 50 µg/mL; in experiment [17] it was 0.128 µg/mL; in experiment [18] it was more than 50 µg/mL. This substance also yielded a neutralization IC50 in experiment [19] of 2.22 µg/mL. The IC50 (µg/mL), pseudovirus neutralization in experiment [22] is 2.3 µg/mL; in experiment [23] it was more than 50 µg/mL; in experiment [24], more than 50 µg/mL; in [28] it was 0.079 µg/mL.
For the substance 4970_K22 (PGT-144) (antibody), the IC50 (µg/mL), pseudovirus neutralization in experiment [29] was more than 50 µg/mL; in experiment [30], more than 50 µg/mL; in [5], 0.562 µg/mL; in [6], 9.97 µg/mL; in experiment [7], more than 50 µg/mL; in experiment [31] it was more than 50 µg/mL.
On to 4980_N08 (PGT-143) (antibody), for which the IC50 (µg/mL), pseudovirus neutralization in experiment [29] was more than 50 µg/mL; in experiment [30] it was more than 50 µg/mL; in experiment [5], 0.107 µg/mL; in [6] it was 0.107 µg/mL; in [7], 43 µg/mL; in [31] it was 17.4 µg/mL.
As for 4993_K13 (PGT-141) (antibody), the IC50 (µg/mL), pseudovirus neutralization in experiment [29] is more than 50 µg/mL; in experiment [30], more than 50 µg/mL; in experiment [5], 0.222 µg/mL; in [6], 0.164 µg/mL; in experiment [7], 24.9 µg/mL; in experiment [31] it was 2.07 µg/mL.
Turning to 4995_E20 (PGT-142) (antibody), the IC50 (µg/mL), pseudovirus neutralization in experiment [29] is more than 50 µg/mL; in experiment [30] it was more than 50 µg/mL; in experiment [5], 0.076 µg/mL; in [6], 0.125 µg/mL; in [7] it was 30.3 µg/mL; in experiment [31] it was 2.75 µg/mL.
Consider 5123_A06 (PGT-125) (antibody), for which the IC50 neutralization in experiment [26] worked out at 0.0128 µg/mL. In addition, the IC50, pseudovirus neutralization in experiment [14] is more than 10 µg/mL; in experiment [1], more than 10 µg/mL; in experiment [15], 0.03 µg/mL; in experiment [20] it was 2.84 µg/mL; in experiment [21], 0.12 µg/mL. This substance showed a Polyclonal Transfectant Neutralization Index in experiment [27] of 119. Moreover, in experiment [27], the Primary Neutralization Index (B cell culture supernatant) is 1730. Besides, the results for the IC50 in [16], in experiment [17] and in [18] were 0.876 µg/mL, 0.026 µg/mL and more than 50 µg/mL, respectively. Further, in experiment [19], the neutralization IC50 was found to be 14 µg/mL. The IC50 (µg/mL), pseudovirus neutralization in [22] is more than 50 µg/mL; in experiment [23], more than 50 µg/mL; in experiment [24], 0.019 µg/mL; in [28], more than 50 µg/mL.
Turning to 5141_B17 (PGT-126) (antibody), the IC50, pseudovirus neutralization was 0.0194 µg/mL in [25]; 0.0181 µg/mL in experiment [14]; more than 10 µg/mL in experiment [1]; 0.019 µg/mL in [15]; 0.084 µg/mL in experiment [20]; more than 50 µg/mL in experiment [21]. This substance also gave an IC80 (pseudovirus neutralization) in experiment [25] of 0.0676 µg/mL. This substance registered an IC90 (pseudovirus neutralization) in experiment [25] of 0.14 µg/mL. The substance also gave an IC95 (pseudovirus neutralization) in [25] of 0.275 µg/mL. Also, the IC50 neutralization in experiment [26] is 0.012 µg/mL. In experiment [27], this substance showed a Polyclonal Transfectant Neutralization Index of 102. In experiment [27], this substance displayed a Primary Neutralization Index (B cell culture supernatant) of 1410. The IC50 was more than 50 µg/mL in experiment [16], 0.03 µg/mL in experiment [17] and more than 50 µg/mL in [18]. In [19], this substance gave a neutralization IC50 of 0.196 µg/mL. Besides, the IC50 (µg/mL), pseudovirus neutralization in [22] is more than 50 µg/mL; in experiment [23] it was more than 50 µg/mL; in [24], 0.025 µg/mL; in experiment [28] it was 17.1 µg/mL.
As for 5145_B14 (PGT-127) (antibody), the IC50, pseudovirus neutralization in [15] is 0.09 µg/mL; in [20], 2.23 µg/mL; in experiment [21], more than 50 µg/mL. Also, the Polyclonal Transfectant Neutralization Index in [27] is 1.61. Further, in experiment [27], the Primary Neutralization Index (B cell culture supernatant) is 31.1. Also, the half-maximal inhibitory concentration (IC50) is more than 50 µg/mL in experiment [16], 0.059 µg/mL in [17] and more than 50 µg/mL in [18]. This substance showed a neutralization IC50 in experiment [19] of 7.57 µg/mL. The IC50 (µg/mL), pseudovirus neutralization in experiment [22] is more than 50 µg/mL; in experiment [23], more than 50 µg/mL; in experiment [24], 0.063 µg/mL; in [28], 19.3 µg/mL.
Take PGV04 (antibody): the IC50 (µg/mL), pseudovirus neutralization in [14] is 0.44 µg/mL; in experiment [1] it was 0.201 µg/mL; in experiment [5], 0.056 µg/mL; in experiment [6], 0.065 µg/mL; in [7], 0.352 µg/mL.
Turning to VRC01 (antibody), the IC50 (µg/mL), pseudovirus neutralization turned out to be 0.685 µg/mL in [29]; 0.029 µg/mL in [30]; 0.319 µg/mL in experiment [19]; 0.056 µg/mL in experiment [5]; 0.124 µg/mL in [6]; 0.164 µg/mL in experiment [7]. In experiment [31], this substance registered an IC50 (µg/mL), pseudovirus neutralization of 0.163 µg/mL. Also, the IC50 in experiment [22] was 0.039 µg/mL.
